Source: US20250108091A1, “PROTEIN FORMULATION, PREPARATION METHOD THEREFOR AND USE THEREOF” (BEIJING LIANGYUAN BIO-SCIENCE, LLC, priority 2022, published 2025)

Experiments:
[1] = target: T1, IL-2 protein (Homo sapiens, UniProt P60568, C145S); test: Isothermal titration calorimetry (ITC), interaction with IL-2; type: binding; conditions: SDS with IL-2, 7.69 mM sodium phosphate buffer, 25° C.; read-out: equilibrium dissociation constant Kd
T1 construct: made in house; host or cells: Escherichia coli
T1 sequence (P60568 21-153 C145S): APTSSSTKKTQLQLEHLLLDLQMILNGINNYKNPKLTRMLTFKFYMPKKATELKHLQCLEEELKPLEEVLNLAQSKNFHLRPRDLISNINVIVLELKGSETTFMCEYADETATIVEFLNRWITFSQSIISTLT
Description: (1) Preparation of samples: • A. PEG2000-DSPE solution: dissolved in 10 mM sodium acetate buffer (pH=5.5), with a concentration of 0.5 mM; • B. SDS solution: dissolved in 7.69 mM sodium phosphate buffer (pH=7.6), with a concentration of 1.73 mM; • C. IL-2 solution: dissolved in 10 mM sodium acetate buffer (pH=5.5), with a concentration of 0.005 mM; • D. IL-2 solution: dissolved in 7.69 mM sodium phosphate buffer (pH=7.0), with a concentration of 0.0164 mM.
10 The MicroCal ITC 200 isothermal titration calorimeter and its supporting operating software from Malvern Panalytical Company were used. Refer to the table below for specific parameter settings:
(3) To determine the interaction between PEG2000-PE and IL-2, 40 μl sample A was added to the syringe, and 250 μl sample C was added to the sample cell. To determine the interaction between SDS and IL-2, 40 μl sample B was added to the syringe, and 250 μl sample D was added to the cell. […] After the reaction was completed, the measured heat change was integrated and subjected to reaction curve fitting (FIG. 4) to calculate various parameters of the interaction between the two samples, wherein the K value measured in the ITC is the binding constant, with a unit of M-1, and its reciprocal is the dissociation constant Kd of the two substances, with a unit of M. The smaller the Kd value, the stronger the affinity between the two substances.

[2] = in serum in vivo; cited from earlier work
[3] = target: T2, βγ dimer (Homo sapiens, UniProt P14784+P31785); conditions: medium affinity; cited from earlier work
T2 sequence (P14784 27-551): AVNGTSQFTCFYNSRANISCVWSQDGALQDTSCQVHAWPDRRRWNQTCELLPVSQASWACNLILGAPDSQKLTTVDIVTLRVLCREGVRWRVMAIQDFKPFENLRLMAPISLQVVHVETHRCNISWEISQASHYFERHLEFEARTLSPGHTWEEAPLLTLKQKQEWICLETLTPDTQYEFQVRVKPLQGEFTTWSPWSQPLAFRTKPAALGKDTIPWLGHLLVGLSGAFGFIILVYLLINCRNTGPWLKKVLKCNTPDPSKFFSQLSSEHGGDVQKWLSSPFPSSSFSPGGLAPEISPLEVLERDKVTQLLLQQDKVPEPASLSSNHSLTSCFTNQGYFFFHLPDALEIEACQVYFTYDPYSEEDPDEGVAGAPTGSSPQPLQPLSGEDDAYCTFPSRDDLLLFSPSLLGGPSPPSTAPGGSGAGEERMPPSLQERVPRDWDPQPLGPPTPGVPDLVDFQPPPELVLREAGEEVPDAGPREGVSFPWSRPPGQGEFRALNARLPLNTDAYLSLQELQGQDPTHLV
T2 sequence (P31785 23-369): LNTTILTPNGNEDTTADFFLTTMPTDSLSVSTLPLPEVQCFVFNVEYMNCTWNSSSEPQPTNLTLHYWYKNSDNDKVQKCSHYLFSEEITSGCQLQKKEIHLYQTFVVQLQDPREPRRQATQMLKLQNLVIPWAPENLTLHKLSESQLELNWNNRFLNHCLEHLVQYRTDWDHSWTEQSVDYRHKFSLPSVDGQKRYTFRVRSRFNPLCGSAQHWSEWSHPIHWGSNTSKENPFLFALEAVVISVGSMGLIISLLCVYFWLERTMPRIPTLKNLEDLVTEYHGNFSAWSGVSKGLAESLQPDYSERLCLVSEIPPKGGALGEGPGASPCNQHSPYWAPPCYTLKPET

Compound | Kd [1] [µM] | half-life [2] [min] | Kd [3] [µM]
CCCCCCCCCCCCOS(=O)(=O)[O-].[Na+] [SDS, sodium dodecyl sulfate] | ~37.3 | – | –
IL2: T cell growth factor, glycoprotein of four α-helices, molecular weight 15.5 Kd | – | 10 to 85 | ~0.001
